From paper PMC8715544 (JACS Au, 2021)

Molecular target: the molecule itself
Assay: SEC

B1: Escherichia coli methionine adenosyltransferase eMAT (enzyme)
chain: MAKHLFTSESVSEGHPDKIADQISDAVLDAILEQDPKARVACETYVKTGMVLVGGEITTSAWVDIEEITRNTVREIGYVHSDMGFDANSCAVLSAIGKQSPDINQGVDRADPLEQGAGDQGLMFGYATNETDVLMPAPITYAHRLVQRQAEVRKNGTLPWLRPDAKSQVTFQYDDGKIVGIDAVVLSTQHSEEIDQKSLQEAVMEEIIKPILPAEWLTSATKFFINPTGRFVIGGPMGDCGLTGRKIIVDTYGGMARHGGGAFSGKDPSKVDRSAAYAARYVAKNIVAAGLADRCEIQVSYAIGVAEPTSIMVETFGTEKVPSEQLTLLVREFFDLRPYGLIQMLDLLHPIYKETAAYGHFGREHFPWEKTDKAQLLRDAAGLK
**Q.** B1 was tested. Which “stoichiometry N” value did it give?
**A.** The value was 4.
